From publication PMC4613530, “Structure-based design and functional studies of novel noroviral 3C protease chimaeras offer insights into substrate specificity” (Biochemical Journal, 2014)

B1: wild-type murine norovirus NS6 protease (enzyme)
chain: APVSIWSRVVQFGTGWGFWVSGHVFITAKHVAPPKGTEIFGRKPGDFTVTSSGDFLKYYFTSAVRPDIPAMVLENGCQEGVVASVLVKRASGEMLALAVRMGSQAAIKIGSAVVHGQTGMLLTGSNAKAQDLGTIPGDCGCPYVYKKGNTWVVIGVHVAATRSGNTVIAATHGEPTLEALEFQ
notes: NS6 protease (3C-like protease), cut product of the ORF1 polyprotein of murine norovirus 1; expressed flanked by 41 residues of NS5 and 41 residues of NS7 and released by self-cleavage as the 19 kDa mature NS6; its strain may differ at a few residues from the UniProt entry; The tags sit upstream of the NS5 stretch and leave with it on self-excision; also called wtMNV NS6; MNV NS6; not shown: His …
B2: wild-type Southampton virus NS6 protease (enzyme)
chain: APPTLWSRVTKFGSGWGFWVSPTVFITTTHVIPTSAKEFFGEPLTSIAIHRAGEFTLFRFSKKIRPDLTGMILEEGCPEGTVCSVLIKRDSGELLPLAVRMGAIASMRIQGRLVHGQSGMLLTGANAKGMDLGTIPGDCGAPYVYKRANDWVVCGVHAAATKSGNTVVCAVQASEGETTLE
notes: NS6 protease (3C-like protease), cut product of the ORF1 polyprotein of Southampton virus (human norovirus); also called wtSV NS6; SV NS6

Target: the molecule itself
Assay: non-reducing PAGE; purified NS6 proteases analysed by non-reducing PAGE; major band at approximately 18 kDa, minor band at approximately 36 kDa taken as the dimer

Protein	binding result
B1	binds
B2	binds
